Drawing on patent publication US20050255564A1, “Sulfated fucan” (TAKARA BIO INC, priority 2002, published 2005), this text covers Specific activity and Total activity for one substance.

The series in a line: endo-type α-(1-4)L-fucosidase activity (HPLC of PA-labeled substrate). It is filed as biochemical, Fucus vesiculosus. The conditions noted are these: endo-type α-(1-4)L-fucosidase activity after each purification step, Table 14. The protocol:
The sulfated fucan oligosaccharide 1-(4) as described in Example 2 was used to establish a system for measuring an endo-type α-(1-4)L-fucosidase activity. First, the sulfated fucan oligosaccharide 1-(4) was fluorescently labeled at the reducing end with 2-aminopyridine according to the method as described in Example 2-(4). The endo-type α-(1-4)L-fucosidase activity was measured as follows.
Briefly, 75 μl of 100 mM sodium phosphate buffer (pH 7.0), 7.5 μl of a bovine serum albumin solution (2 mg/ml), 3.75 μl of 4 M sodium chloride, 50.25 μl of water, 6 μl of the sulfated fucan oligosaccharide 1-(4) fluorescently labeled at the reducing end with 2-aminopyridine (10 pmol/μl) and 7.5 μl of an endo-type α-(1-4)L-fucosidase solution were mixed together. After reacting at 30° C. for 3 hours, the reaction mixture was treated at 100° C. for 10 minutes and analyzed using HPLC. As controls, a reaction mixture obtained by a reaction in which the solvent for the endo-type α-(1-4)L-fucosidase was used in place of the enzyme solution and a reaction mixture obtained by a reaction in which water was used in place of the substrate were similarly analyzed. […]

Hydroxyapatite: the Specific activity is given as 10.6 mU/mg and the Total activity is listed as 219 mU.
